Results taken from patent US20240400708A1.
Residue numbers refer to the chain shown, from its start. In names and notes the source's numbering stands.

B1: feline IgG1a S434G (antibody, part only; not given: Variable domains, not shown: another chain or arm of the molecule)
constant: ASTTAPSVFPLAPSCGTTSGATVALACLVLGYFPEPVTVSWNSGALTSGVHTFPAVLQASGLYSLSSMVTVPSSRWLSDTFTCNVAHPPSNTKVDKTVRKTDHPPGPKPCDCPKCPPPEMLGGPSIFIFPPKPKDTLSISRTPEVTCLVVDLGPDDSDVQITWFVDNTQVYTAKTSPREEQFNSTYRVVSVLPILHQDWLKGKEFKCKVNSKSLPSPIERTISKAKGQPHEPQVYVLPPAQEELSRNKVSVTCLIKSFHPPDIAVEWEITGQPEPENNYRTTPPQLDSDGTYFVYSKLSVDRSHWQRGNTYTCSVSHEALHGHHTQKSLTQSPGK
B2: feline IgG1a mutant ID No. 284: S252Y, Q311W, D312P, S434Y (antibody, part only; not given: Variable domains, not shown: another chain or arm of the molecule)
constant: B1 constant with S138Y, Q197W, D198P, G322Y
B3: feline IgG1a mutant ID No. 255: S428M, S434P (antibody, part only; not given: Variable domains, not shown: another chain or arm of the molecule)
constant: B1 constant with S316M, G322P
B4: feline IgG1a S428Y (antibody, part only; not given: Variable domains, not shown: another chain or arm of the molecule)
constant: B1 constant with S316Y, G322S
B5: feline IgG1a A431K (antibody, part only; not given: variable domains and light chain, not shown: another chain or arm of the molecule)
constant: B1 constant with A319K, G322S
B6: feline IgG1a A378C (antibody, part only; not given: Variable domains, not shown: another chain or arm of the molecule)
constant: B1 constant with A264C, G322S
B7: feline IgG1a A378K (antibody, part only; not given: Variable domains, not shown: another chain or arm of the molecule)
constant: B1 constant with A264K, G322S
B8: feline IgG1a S428L/S434Y (antibody, part only; not given: Variable domains, not shown: another chain or arm of the molecule; small tags and cut ends)
constant: B1 constant with S316L, G322Y
B9: feline IgG1a mutant ID No. 311: Q311H, D312P, L314K (antibody, part only; not given: Variable domains, not shown: another chain or arm of the molecule; small tags and cut ends)
constant: B1 constant with Q197H, D198P, L200K, G322S
B10: feline IgG1a mutant ID No. 264: D312P, L314K, S434Y (antibody, part only; not given: Variable domains, not shown: another chain or arm of the molecule)
constant: B1 constant with D198P, L200K, G322Y
B11: feline IgG1a mutant ID No. 265: Q311W, D312P, L314K, S434Y (antibody, part only; not given: Variable domains, not shown: another chain or arm of the molecule)
constant: B1 constant with Q197W, D198P, L200K, G322Y
B12: feline IgG1a T437R (antibody, part only; not given: variable domains and light chain, not shown: another chain or arm of the molecule)
constant: B1 constant with G322S, T325R
B13: feline IgG1a A378I (antibody, part only; not given: Variable domains, not shown: another chain or arm of the molecule)
constant: B1 constant with A264I, G322S
B14: feline IgG1a mutant ID No. 320: S428Y, D312P, S434P (antibody, part only; not given: Variable domains, not shown: another chain or arm of the molecule)
constant: B1 constant with D198P, S316Y, G322P
B15: feline IgG1a mutant ID No. 307: D401R, T403R (antibody, part only; not given: Variable domains, not shown: another chain or arm of the molecule; small tags and cut ends)
constant: B1 constant with D289R, T291R, G322S
B16: feline IgG1a H436Y (antibody, part only; not given: Variable domains, not shown: another chain or arm of the molecule)
constant: B1 constant with G322S, H324Y
B17: feline IgG1a mutant ID No. 253: S428M, S434L (antibody, part only; not given: Variable domains, not shown: another chain or arm of the molecule)
constant: B1 constant with S316M, G322L
B18: feline IgG1a S252Y (antibody, part only; not given: Variable domains, not shown: another chain or arm of the molecule)
constant: B1 constant with S138Y, G322S
B19: feline IgG1a mutant ID No. 330: S428Y, D312P, S434Y, Q311K, L314K (antibody, part only; not given: Variable domains, not shown: another chain or arm of the molecule; small tags and cut ends)
constant: B1 constant with Q197K, D198P, L200K, S316Y, G322Y
B20: feline IgG1a A378M (antibody, part only; not given: Variable domains, not shown: another chain or arm of the molecule)
constant: B1 constant with A264M, G322S
B21: feline IgG1a S252H (antibody, part only; not given: Variable domains, not shown: another chain or arm of the molecule)
constant: B1 constant with S138H, G322S
B22: feline IgG1a mutant ID No. 309: P247V, T250Q (antibody, part only; not given: Variable domains, not shown: another chain or arm of the molecule; small tags and cut ends)
constant: B1 constant with P133V, T136Q, G322S
B23: feline IgG1a A378D (antibody, part only; not given: Variable domains, not shown: another chain or arm of the molecule)
constant: B1 constant with A264D, G322S
B24: feline IgG1a A378F (antibody, part only; not given: Variable domains, not shown: another chain or arm of the molecule)
constant: B1 constant with A264F, G322S
B25: feline IgG1a mutant ID No. 286: S252Y, S428Y, D312P, L314K (antibody, part only; not given: Variable domains, not shown: another chain or arm of the molecule)
constant: B1 constant with S138Y, D198P, L200K, S316Y, G322S
B26: feline IgG1a mutant ID No. 313: Q311M, D312P, L314K (antibody, part only; not given: Variable domains, not shown: another chain or arm of the molecule)
constant: B1 constant with Q197M, D198P, L200K, G322S
B27: feline IgG1a L314K (antibody, part only; not given: variable domains and light chain, not shown: another chain or arm of the molecule)
constant: B1 constant with L200K, G322S
B28: feline IgG1a mutant ID No. 314: Q311R, D312P, L314K (antibody, part only; not given: Variable domains, not shown: another chain or arm of the molecule)
constant: B1 constant with Q197R, D198P, L200K, G322S
B29: feline IgG1a mutant ID No. 275: S252R, S434R (antibody, part only; not given: Variable domains, not shown: another chain or arm of the molecule)
constant: B1 constant with S138R, G322R
B30: feline IgG1a A378H (antibody, part only; not given: Variable domains, not shown: another chain or arm of the molecule)
constant: B1 constant with A264H, G322S
B31: feline IgG1a Q311Y (antibody, part only; not given: Variable domains, not shown: another chain or arm of the molecule)
constant: B1 constant with Q197Y, G322S
B32: feline IgG1a S252R/S428L/S434F (antibody, part only; not given: Variable domains, not shown: another chain or arm of the molecule)
constant: B1 constant with S138R, S316L, G322F
B33: feline IgG1a A378P (antibody, part only; not given: Variable domains, not shown: another chain or arm of the molecule)
constant: B1 constant with A264P, G322S
B34: feline IgG1a Q311W (antibody, part only; not given: Variable domains, not shown: another chain or arm of the molecule)
constant: B1 constant with Q197W, G322S
B35: feline IgG1a mutant ID No. 306: D399M, T403R (antibody, part only; not given: Variable domains, not shown: another chain or arm of the molecule; small tags and cut ends)
constant: B1 constant with D287M, T291R, G322S
B36: feline IgG1a A378L (antibody, part only; not given: Variable domains, not shown: another chain or arm of the molecule)
constant: B1 constant with A264L, G322S
B37: feline IgG1a A378G (antibody, part only; not given: Variable domains, not shown: another chain or arm of the molecule)
constant: B1 constant with A264G, G322S
B38: feline IgG1a mutant ID No. 298: S428Y, Q311W, D312P, L314K (antibody, part only; not given: Variable domains, not shown: another chain or arm of the molecule)
constant: B1 constant with Q197W, D198P, L200K, S316Y, G322S
B39: feline IgG1a mutant ID No. 302: A431K, S434P (antibody, part only; not given: Variable domains, not shown: another chain or arm of the molecule)
constant: B1 constant with A319K, G322P
B40: feline IgG1a S252F (antibody, part only; not given: Variable domains, not shown: another chain or arm of the molecule)
constant: B1 constant with S138F, G322S
B41: feline IgG1a mutant ID No. 315: Q311Y, D312P, L314K (antibody, part only; not given: Variable domains, not shown: another chain or arm of the molecule)
constant: B1 constant with Q197Y, D198P, L200K, G322S
B42: feline IgG1a A378E (antibody, part only; not given: Variable domains, not shown: another chain or arm of the molecule)
constant: B1 constant with A264E, G322S
B43: feline IgG1a A378N (antibody, part only; not given: variable domains and light chain, not shown: another chain or arm of the molecule)
constant: B1 constant with A264N, G322S
B44: feline IgG1a mutant ID No. 312: Q311K, D312P, L314K (antibody, part only; not given: Variable domains, not shown: another chain or arm of the molecule)
constant: B1 constant with Q197K, D198P, L200K, G322S
B45: feline IgG1a mutant ID No. 304: D399M, D401R (antibody, part only; not given: variable domains and light chain, not shown: another chain or arm of the molecule; small tags and cut ends)
constant: B1 constant with D287M, D289R, G322S
B46: feline IgG1a mutant ID No. 322: S428Y, D312P, S434Y, D399M, D401R (antibody, part only; not given: variable domains and light chain, not shown: another chain or arm of the molecule)
constant: B1 constant with D198P, D287M, D289R, S316Y, G322Y
B47: feline IgG1a D312P (antibody, part only; not given: Variable domains, not shown: another chain or arm of the molecule)
constant: B1 constant with D198P, G322S
B48: feline IgG1a T437A (antibody, part only; not given: Variable domains, not shown: another chain or arm of the molecule)
constant: B1 constant with G322S, T325A
B49: feline IgG1a Y285A (antibody, part only; not given: Variable domains, not shown: another chain or arm of the molecule)
constant: B1 constant with Y171A, G322S

Assays:
[1] = target: feline FcRn complex (FcRn-α subunit and β-microglobulin), biotin labeled (feline); assay: SPR, pH 6
[2] = target: feline FcRn complex (FcRn-α subunit and β-microglobulin), biotin labeled (feline); assay: SPR, pH 7.4
[3] = target: feline FcRn complex (FcRn-α subunit and β-microglobulin) (feline); assay: SPR (Biacore), FcRn on SA chip, pH 6

Molecule	Kd [1] [nM]	Kd [2] [nM]	Kd [3] [nM]
feline IgG1a S252H/S428M/D312P (ID No. 215) (antibody)	3.24	41.2	–
feline IgG1a mutant ID No. 259: S428L (antibody)	–	–	24.5
feline IgG1a T403R (antibody)	6.22	840	–
feline IgG1a mutant ID No. 263: S252Y, S254T, T256E (antibody)	–	–	14
feline IgG1a mutant ID No. 262: S428L (antibody)	–	–	25.4
feline IgG1a S434Y/S434F (as printed) (antibody)	3.61	94.8	–
B1	9.58	21.6	–
B2	–	–	7.27
B3	–	–	7.53
B4	16.4	18700	–
B5	10.1	9.39	–
B6	77.3	–	–
B7	104	–	–
B8	2.75	46.9	–
B9	–	–	1.44
B10	–	–	71.7
B11	–	–	7.95
B12	6.85	–	–
B13	58.3	–	–
B14	–	–	22.7
B15	–	–	15.9
B16	10.2	43.4	–
B17	–	–	8
B18	893	12700	–
B19	–	–	0.00906
B20	26.6	–	–
B21	49.9	8410	–
B22	–	–	9.6

Molecule	Kd [1] [nM]	Kd [2] [nM]	Kd [3] [nM]
B23	100	–	–
B24	74.8	–	–
B25	–	–	27
B26	–	–	18.9
B27	8.43	41.5	–
B28	–	–	2130
B29	–	–	78.6
B30	49.3	–	–
B31	5.53	41.4	–
B32	6.43	774	–
B33	68.4	–	–
B34	4.18	207	–
B35	–	–	12.8
B36	34.7	–	–
B37	88.3	–	–
B38	–	–	25.3
B39	–	–	2.17
B40	123	5960	–
B41	–	–	11.4
B42	63.6	–	–
B43	28.6	–	–
B44	–	–	6.07
B45	–	–	5.43
B46	–	–	0.00402
B47	3.96	2960	–
B48	8.79	–	–
B49	8.01	–	–
